Results as given in patent US20080207501A1 (published 2008).
Ends that are not written are not given here.

Target: T1, amylin receptor (nucleus accumbens membranes prepared from rat brain) (rat, UniProt P32214 25-516)
T1 chain 1: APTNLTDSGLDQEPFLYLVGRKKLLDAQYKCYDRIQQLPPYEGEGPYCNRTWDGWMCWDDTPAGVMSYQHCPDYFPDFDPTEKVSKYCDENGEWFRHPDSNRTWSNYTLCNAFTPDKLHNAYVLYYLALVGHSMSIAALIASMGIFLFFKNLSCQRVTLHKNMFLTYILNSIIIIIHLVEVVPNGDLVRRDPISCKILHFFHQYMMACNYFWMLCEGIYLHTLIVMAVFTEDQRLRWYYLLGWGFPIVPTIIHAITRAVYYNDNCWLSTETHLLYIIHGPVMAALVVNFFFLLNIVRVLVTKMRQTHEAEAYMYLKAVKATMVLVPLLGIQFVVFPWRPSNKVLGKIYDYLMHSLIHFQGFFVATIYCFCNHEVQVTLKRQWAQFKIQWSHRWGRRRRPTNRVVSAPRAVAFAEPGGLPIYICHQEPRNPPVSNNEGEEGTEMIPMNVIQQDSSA
T1 chain 2: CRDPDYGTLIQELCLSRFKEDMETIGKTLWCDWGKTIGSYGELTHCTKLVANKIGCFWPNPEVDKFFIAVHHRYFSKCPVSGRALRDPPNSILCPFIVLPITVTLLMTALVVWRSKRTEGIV
Test: radioligand binding assay (displacement of radiolabeled amylin)

B1: Human Calcitonin (peptide)
peptide: CGNLSTCMLGTYTQDFNKFHTFPQTAIGVGAP-NH2
modifications: ends and bridges not checked
EC50: > 100 nM

B2: Human AFP-6 [1-47] (peptide)
peptide: TQAQLLRVGCVLGTCQVQNLSHRLWQLMGPAGRQDSAPVDPSSPHSY-NH2
modifications: ends and bridges not checked
EC50: 2.9 nM
